Test results: patent publication US20150141617A1, “PRODUCTION AND PURIFICATION OF ACTIVE EUKARYOTIC FORMYLGLYCINEGENERATING ENZYME (FGE) VARIANTS” (Universität Bielefeld, priority 2013, published 2015)

Tests used:
[1] = biological target: FGE-HA (human formylglycine generating enzyme, wild type, C-terminal HA tag, expressed from pBI-FGE-HA in mammalian cells) (human) (UniProt Q8NBK3); test: cell-based or functional assay
[2] = biological target: T1, 23 amino acid substrate peptide Ac-MTDFYVPVSLCTPSRAALLTGRS-NH2 (SEQ ID NO: 46)
T1 chain: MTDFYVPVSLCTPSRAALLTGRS

[3] = Stability of purified recombinant FGE upon storage (SDS-PAGE, Coomassie staining or western blotting); assay type: physicochemical
Protocol: Purified enzymes are preferably stored frozen at −20° C. or −80° C., but it is known that the freeze-thaw cycle can lead to a decrease in the stability of proteins and/or accompanied loss of enzymatic activity. To minimize this effect, it is common to add stabilizing agents to preserve the stability and functionality of proteins during long-term storage. Analyses of conditions that affect the stability of purified recombinant fl-FGE-R69A/R72A and Δ72-FGE-wt were performed. The stability was assessed by analyzing the purified protein by SDS-PAGE and subsequently visualized by Coomassie staining or western blotting using FGE anti-serum as described above.
Generation of truncated FGE was increasingly detected upon removing the imidazole by size exclusion chromatography (Panel SEC, FIG. 17A). To gain further insights, aliquots of the purified fraction from size exclusion chromatography were incubated at 4° C. for either 3.5 h or 20 h in the presence of various additives like NaCl, imidazole, arginine and glycerol and later assessed by western blot using FGE anti-serum.

[4] = system: cysteine-containing substrate peptide; test: In vitro FGE activity assay with conditioned media from CHO-FD11 cells; assay type: biochemical; conditions: 5 mM GSH vs 2 mM DTT, pH 9.3, conditioned media
Protocol: FGE activity was assayed using conditioned media that contained either secreted fl-FGE (obtained from CHO-FD FGE-His6 cells) or Δ72-FGE (obtained from CHO-FD Tet-On cells after transient co-transfection with pBI-FGE-HA and pIRES-Furin constructs). After expression for 48 h at 1% or 2.5% FCS containing DMEM, the medium was collected and centrifuged at 500×g for 5 min. The supernatant was analyzed by SDS-PAGE and western blotting and aliquots were directly used for activity testing.
The activity assay was performed in triplicates with three sets of conditioned media at pH 9.3 under standard conditions as described earlier (4) with some modifications; no BSA was added to the reaction mixture and 2 mM DTT or 5 mM GSH were used as reducing agents.
The inventors have recently shown that the N-terminal part of FGE (residues 34-68) is essential to activate sulfatases in vivo (12). By contrast, the N-terminal extension was not required for in vitro FGly-generating activity of purified secreted Δ72-FGE. […] To assess the physiological consequence of the N-terminal truncation by furin on the function of FGE, the inventors analyzed the FGly-generating activity of the processed and the unprocessed forms of secreted FGE in the presence of glutathione (GSH), a physiological reductant, or DTT serving as a control. […]

[5] = system: 23-aa long substrate peptide Ac-MTDFYVPVSLCTPSRAALLTGRS-NH2; test: In vitro FGE activity assay (MALDI-ToF MS) with purified recombinant FGE from insect cells; assay type: biochemical; conditions: for pH of maximal activity: MTGC buffer pH 6.5-11.0; for FGly generation in substrate peptide in presence of DTT: pH 9.3, 37° C.; for dependence of activity on reducing agent (DTT or GSH): in vitro; for specific activity: purified from Baculovirus expression system (Example 7); for DTT concentration of maximal activity: 0-15 mM DTT, pH 9.3, 15 min 37° C.
Protocol: a) fl-FGE-R69A/R72A (SEQ ID NO: 4) is active and e.g. generates FGly within a 23-aa long substrate peptide 16 pmol of the 23 amino acid (aa) long peptide Ac-[…]-NH2 (SEQ ID NO:46) were incubated with 12 ng of fl-FGE-R69A/R72A for 20 min at 37° C. under assay conditions (50 mM Tris, 67 mM NaCl, 15 μM CaCl2, 0.33 mg/mL BSA, 2 mM DTT, pH 9.3 in a total volume of 30 μL).
The reaction was stopped by adding 3 μL of 20% trifluoroacetic-acid (TFA), immediately followed by vortexing and by a short centrifugation at 10000×g. The peptide was purified and concentrated by C18-Zip-Tip treatment. Therefore the Zip-Tip was prepared by pipetting three times 10 μL of 50% acetonitrile, 0.05% TFA in water and three times 10 μL 0.1% TFA in water. The 33 μL sample was pipetted 10 times up and down. The bound peptide was washed by pipetting 10 times 10 μL 0.1% TFA in water and was eluted in 10 μL 50% acetonitrile, 0.05% TFA in water by pipetting 10 times up and down. For MS-analysis the following matrix was prepared freshly: 40 μL of a saturated α-cyano-hydroxycinnamic acid solution in aceton were added to 10 μL of a solution containing 10 mg/mL nitrocellulose in 50% Aceton/50% Isopropanol (v/v). 0.5 μL of the matrix were spotted onto a polished steel target and 1 μL of the purified sample was added. The dried sample spot was analyzed by MALDI-ToF mass spectrometry using the Ultra flextreme spectrometer from Bruker Daltronics. The cysteine containing substrate peptide (2526.28 [M+H]^+) and the FGly containing product peptide (2508.29 [M+H]^+) were detected.
b) fl-FGE-R69A/R72A (SEQ ID NO:4) is able to generate FGly by using GSH as reductant:10 times stock solutions of DTT and GSH were prepared in 20 mM Tris pH 9.3. For the reaction, 13 ng of Baculo-fl-FGE were incubated with 16 pmol of the 23 aa-long substrate peptide, 2 mM DTT or 5 mM reduced glutathione for 15 min at 37° C. under assay conditions (50 mM Tris, 67 mM NaCl, 15 μM CaCl2, 0.33 mg/mL BSA, pH 9.3 in a total volume of 30 μL). The reactions were stopped and prepared further for MS-analysis as described above. The ratio of the intensity of the FGly-product peptide divided by the sum of the substrate and product intensities multiplied with 100 yields %-turnover of the substrate peptide. Based on that, specific activities were calculated.
The dependence of FGly-generating activity of recombinant fl-FGE-R69A/R72A on the reducing agents DTT and GSH were analyzed at pH 9.3 under standard assay conditions (FGE and substrate peptide were incubated at 37° C. in 50 mM Tris/HCl, 67 mM NaCl, and 0.33 mg/ml BSA in 30 μl volume. The reaction was started by addition of substrate) using a MALDI-mass spectrometry based in vitro activity assay (Ennemann et al., 2013 and FIG. 7).
The pH-dependence for in vitro activity of recombinant fl-FGE-R69A/R72A and Δ72-FGE-wt was analyzed under optimal DTT and GSH concentrations. Accordingly, the activity of recombinant fl-FGE-R69A/R72A in the presence of 2 mM DTT, under standard assay conditions, was measured in buffers of pH ranging from pH 6.5 to 11.0 (FIG. 19A). […] In the presence of 5 mM GSH, the maximal activity was also observed at pH 9.3 and a very similar activity profile ranging from pH 7.5 to 11 (FIG. 19B). […] In summary, fl-FGE-R69A/R72A requires less alkaline conditions for optimum activity than Δ72-FGE-wt.

human furin (Gene ID 5045), expressed from a pIRES construct in CHO-FD11 cells (from UniProt P09958 108-794)
share of Δ72-FGE in secretions of CHO-FD11 Tet-On cells co-expressing FGE and the PC (western blot) [1]: 100%

B1: Δ72-FGE (SEQ ID NO: 6), produced in High Five insect cells (protein)
chain: ADLGSSMEFEANAPGPVPGERQLAHSKMVPIPAGVFTMGTDDPQIKQDGEAPARRVTIDAFYMDAYEVSNTEFEKFVNSTGYLTEAEKFGDSFVFEGMLSEQVKTNIQQAVAAAPWWLPVKGANWRHPEGPDSTILHRPDHPVLHVSWNDAVAYCTWAGKRLPTEAEWEYSCRGGLHNRLFPWGNKLQPKGQHYANIWQGEFPVTNTGEDGFQGTAPVDAFPPNGYGLYNIVGNAWEWTSDWWTVHHSVEETLNPKGPPSGKDRVKKGGSYMCHRSYCYRYRCAARSQNTPDSSASNLGFRCAADRLPTMDSGRGSHHHHHHH
conversion of the Cys substrate peptide to the FGly product peptide (MALDI-ToF MS), DTT as reductant [2]: The Δ72-FGE (SEQ ID NO: 6) variant also converts the cysteine-containing substrate peptide to the FGly-containing product peptide in presence of the reductant DTT

B2: Δ72-FGE: human FGE that lacks the N-terminal domain (amino acid residues 1-72), SEQ ID NO:6 (protein)
chain: B1 chain
modifications: cleaved FGE in position 72 , inacitve FGE
molecular integrity after storage ([3]; thawing from −80° C. and short-term storage at 4° C.): did not lead to any change in the molecular integrity
FGly-generating activity (% substrate turnover) in the presence of GSH normalized to that of DTT (100%) [4]: barely active in the presence of GSH
pH of maximal activity ([5]; 2 mM DTT): ~10
FGly generation in substrate peptide in presence of DTT ([5]; 2 mM DTT): converts the cysteine-containing substrate peptide to the FGly-containing product peptide
dependence of activity on reducing agent (DTT or GSH) ([5]; pH 9.3): strictly relies on DTT
specific activity [5]: 70-90 mU/mg

B3: dimeric FGE: disulfide-bridged dimeric form of recombinant fl-FGE-R69A/R72A separated by size exclusion chromatography (protein)
chain: ADEFSQEAGTGAGAGSLAGSCGCGTPQRPGAHGSSAAAHAYSAEANAPGPVPGERQLAHSKMVPIPAGVFTMGTDDPQIKQDGEAPARRVTIDAFYMDAYEVSNTEFEKFVNSTGYLTEAEKFGDSFVFEGMLSEQVKTNIQQAVAAAPWWLPVKGANWRHPEGPDSTILHRPDHPVLHVSWNDAVAYCTWAGKRLPTEAEWEYSCRGGLHNRLFPWGNKLQPKGQHYANIWQGEFPVTNTGEDGFQGTAPVDAFPPNGYGLYNIVGNAWEWTSDWWTVHHSVEETLNPKGPPSGKDRVKKGGSYMCHRSYCYRYRCAARSQNTPDSSASNLGFRCAADRLPTMDSGRGSHHHHHHH
stability of dimeric vs monomeric form [3]: more stable than monomeric fl FGE forms
DTT concentration of maximal activity [5]: 0.1 to 1 mM
DTT concentration for optimal activity under in vitro conditions ([5]; pH 9.3): 0.1 to 2 mM

B4: monomeric FGE (protein)
chain: B3 chain
DTT concentration of maximal activity [5]: 2 mM
DTT concentration for optimal activity under in vitro conditions ([5]; pH 9.3): 1 to 10 mM

B5: fl-FGE-R69A/R72A: human full length FGE variant, Arginine-69 and Arginine-72 converted to Alanine, non-cleavable furin motif, SEQ ID NO:4 (protein)
chain: B3 chain
modifications: double fl FGE variant R69A / R72A
stability with added imidazole ([3]; 250 mM imidazole, one freeze-thaw cycle, two weeks at −80° C.): more stable
truncated fragment (~37 kDa) of the total protein after thawing ([3]; Ni-NTA fractions containing 250-500 mM imidazole, long-term storage −80° C.): less than 5%
stability after long-term storage ([3]; Ni-NTA fractions containing 250-500 mM imidazole, −80° C.): highly stable
truncation on prolonged incubation ([3]; SEC fraction (imidazole removed), 4° C., 3.5 h or 20 h): led to generation of truncated fragments
truncation on incubation with additive ([3]; SEC fraction, 4° C., 250 mM imidazole or 850 mM NaCl): prevented further increase of FGE truncation
specific activity in presence of the control reductant DTT ([5]; 2 mM DTT, 15 min 37° C., pH 9.3, 4 measurements): 24.1±1.7 mU/mg
pH of maximal activity ([5]; 2 mM DTT): 9.3
FGly generation in substrate peptide in presence of DTT ([5]; 2 mM DTT): is active
pH of maximal activity ([5]; 5 mM GSH): 9.3
specific activity in presence of GSH ([5]; 5 mM reduced glutathione, 15 min 37° C., pH 9.3, 4 measurements): 15.6±1.3 mU/mg
FGly generation using GSH as reductant ([5]; 5 mM reduced glutathione, pH 9.3): active in presence of GSH
dependence of activity on reducing agent (DTT or GSH) ([5]; pH 9.3): fully functional in the presence of either DTT or glutathione (GSH)
activity in the absence of externally added reducing agents ([5]; pH 9.3): very low activity
specific activity [5]: 33 mU/mg
